# From US20060204492A1 (published 2006)
# Read-outs that look alike come from different tables or passages of the source.
# Columns and labels:
# [1] = target: T1, integrin αvβ3, purified from human placenta (human, UniProt P06756 31-1048; P05106 27-788); assay: SPR (BIAcore), purified Fab over immobilized αvβ3
# T1 construct: mature; Native heterodimer, immobilized on ELISA plates or on the BIAcore chip; biotinylated in capture lift and capture ELISA screens; also called αvβ3 receptor; vitronectin receptor
# T1 sequence (P06756 31-1048, form in doubt, chain 1 of 2): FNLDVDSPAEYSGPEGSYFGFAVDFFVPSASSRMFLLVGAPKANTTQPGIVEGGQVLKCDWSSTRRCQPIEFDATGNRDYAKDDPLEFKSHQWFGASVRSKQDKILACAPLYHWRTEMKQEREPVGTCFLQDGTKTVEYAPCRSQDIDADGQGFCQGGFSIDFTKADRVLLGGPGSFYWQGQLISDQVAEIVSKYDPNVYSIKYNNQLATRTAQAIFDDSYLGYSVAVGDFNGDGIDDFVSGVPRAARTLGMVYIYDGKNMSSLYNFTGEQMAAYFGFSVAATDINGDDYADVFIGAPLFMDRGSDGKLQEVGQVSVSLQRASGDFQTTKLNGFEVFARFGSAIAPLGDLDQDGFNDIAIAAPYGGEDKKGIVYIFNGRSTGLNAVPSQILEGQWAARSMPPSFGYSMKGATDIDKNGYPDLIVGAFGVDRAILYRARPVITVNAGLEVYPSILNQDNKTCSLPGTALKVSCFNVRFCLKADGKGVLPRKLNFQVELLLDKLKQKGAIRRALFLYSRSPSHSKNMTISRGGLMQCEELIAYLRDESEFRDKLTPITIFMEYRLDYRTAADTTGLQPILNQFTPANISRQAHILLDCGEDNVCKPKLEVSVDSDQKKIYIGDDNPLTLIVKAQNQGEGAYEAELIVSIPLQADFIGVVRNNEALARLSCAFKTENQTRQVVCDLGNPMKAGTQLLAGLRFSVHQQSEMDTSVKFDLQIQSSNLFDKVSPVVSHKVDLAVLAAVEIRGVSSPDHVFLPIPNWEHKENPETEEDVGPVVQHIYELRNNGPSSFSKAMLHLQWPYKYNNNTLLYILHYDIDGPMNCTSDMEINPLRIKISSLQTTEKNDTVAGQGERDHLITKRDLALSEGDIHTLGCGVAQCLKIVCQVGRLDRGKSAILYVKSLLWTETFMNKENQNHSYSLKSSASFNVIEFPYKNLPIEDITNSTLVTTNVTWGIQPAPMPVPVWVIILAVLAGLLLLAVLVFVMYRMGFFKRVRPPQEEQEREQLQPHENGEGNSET
# T1 sequence (P05106 27-788, form in doubt, chain 2 of 2): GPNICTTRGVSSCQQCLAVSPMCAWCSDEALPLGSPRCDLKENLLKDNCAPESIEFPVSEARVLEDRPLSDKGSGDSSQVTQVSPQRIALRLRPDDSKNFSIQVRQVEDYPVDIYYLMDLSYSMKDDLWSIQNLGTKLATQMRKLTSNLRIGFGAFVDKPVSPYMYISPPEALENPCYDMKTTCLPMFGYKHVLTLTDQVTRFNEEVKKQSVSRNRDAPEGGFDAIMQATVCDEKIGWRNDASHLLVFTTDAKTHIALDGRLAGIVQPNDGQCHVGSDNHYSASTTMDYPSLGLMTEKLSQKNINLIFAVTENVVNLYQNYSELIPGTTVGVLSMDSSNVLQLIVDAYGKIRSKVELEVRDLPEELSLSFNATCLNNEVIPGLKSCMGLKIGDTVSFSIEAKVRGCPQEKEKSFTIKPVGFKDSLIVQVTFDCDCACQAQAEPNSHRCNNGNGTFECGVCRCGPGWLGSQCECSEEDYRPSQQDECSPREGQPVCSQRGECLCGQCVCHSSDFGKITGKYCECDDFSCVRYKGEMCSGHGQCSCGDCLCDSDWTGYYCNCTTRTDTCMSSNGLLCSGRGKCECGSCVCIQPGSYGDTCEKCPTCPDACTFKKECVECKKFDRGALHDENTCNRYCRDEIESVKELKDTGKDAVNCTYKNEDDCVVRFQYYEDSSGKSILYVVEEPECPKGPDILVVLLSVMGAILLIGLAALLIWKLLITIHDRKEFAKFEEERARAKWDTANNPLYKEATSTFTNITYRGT
# Description: (§1) The affinities of select variants were further characterized by utilizing surface plasmon resonance (BIAcore) to measure the association and dissociation rates of purified Fab with immobilized αᵥβ₃. […] To obtain association rate constants (kₒₙ), the binding rate at five different Fab concentrations, ranging from 5-40 μg/ml in 50 mM Tris-HCl, pH 7.4, 100 mM NaCl, 2 mM CaCl₂, and 1 mM MgCl₂, was determined at a flow rate of 10 μl/min. Dissociation rate constants (koff) were the average of five measurements obtained by analyzing the dissociation phase at an increased flow rate (40 μl/min). Sensorgrams were analyzed with the BIAevaluation 2.1 program (Pharmacia). Residual Fab was removed after each measurement with 10 mM HCl, 2 mM CaCl₂ and 1 mM MgCl₂.
# [2] = target: T1, integrin αvβ3, purified from human …; assay: SPR (BIAcore), purified Fab over immobilized αvβ3; remark: listed apart in the source
# Description: as §1
# [3] = target: T1, integrin αvβ3, purified from human …; assay: SPR (BIAcore), purified Fab over immobilized αvβ3; remark: listed apart in the source
# [4] = target: T1, integrin αvβ3, purified from human …; assay: ELISA titration of Fab on immobilized αvβ3
# Description: Just prior to use, the plates were washed two times and were then incubated 1 h at 25° C. with various dilutions of Fab. […] All dilutions and washes were in 50 mM Tris-HCl, pH 7.4, 100 mM NaCl, 2 mM CaCl₂, and 1 mM MgCl₂.
Binder,Kd [1] [nM],koff [1] [s⁻¹],kon [1] [M⁻¹ s⁻¹],Kd [2] [nM],koff [2] [s⁻¹],kon [2] [M⁻¹ s⁻¹],fold slower dissociation rate than parent [3] [fold],fold enhanced affinity over parent LM609 grafted antibody [3] [fold],fold enhanced binding over parent LM609 grafted antibody [4] [fold],fold greater affinity than parent LM609 grafted antibody [3] [fold],fold greater association rate than parent [3] [fold]
"LM609 grafted antibody Fab (Fab, V domains shown, Fab expressed from M13 phage vector, human kappa chain, peptide tag on the carboxyl-terminus of the heavy chain; also called LM609 grafted Fab; parent LM609 grafted antibody) VH: QVQLVESGGGVVQPGRSLRLSCAASGFTFSSYDMSWVRQAPGKGLEWVAKVSSGGGSTYYLDTVQGRFTISRDNSKNTLYLQMNSLRAEDTAVYYCARHNYGSFAYWGQGTTVTVSS VL: EIVLTQSPATLSLSPGERATLSCQASQSISNHLHWYQQRPGQAPRLLIRYRSQSISGIPARFSGSGSGTDFTLTISSLEPEDFAVYYCQQSGSWPHTFGGGTKVEIK",27.6,0.00497,180000,27.6,0.00497,180000,,,,,
"LM609 grafted antibody combinatorial clone C59 (Fab, V domains shown, Fab) VH: QVQLVESGGGVVQPGRSLRLSCAASGFTFSSYDMSWVRQAPGKGLEWVAKVSSGGGSTYYPDTVQGRFTISRDNSKNTLYLQMNSLRAEDTAVYYCARHNYGSFADWGQGTTVTVSS VL: EIVLTQSPATLSLSPGERATLSCQASQSISNFLHWYQQRPGQAPRLLIRYRSQSISGIPARFSGSGSGTDFTLTISSLEPEDFAVYYCQQSGSWPHTFGGGTKVEIK",,,,0.5,0.000137,265000,> 10,,,,
"LM609 grafted antibody combinatorial clone V357D (Fab, V domains shown, Fab; V357D is a clone name, not a substitution) VH: QVQLVESGGGVVQPGRSLRLSCAASGFTFSSYDMSWVRQAPGKGLEWVAKVSSGGGSTYYLDTVQGRFTISRDNSKNTLYLQMNSLRAEDTAVYYCARHNYGSFADWGQGTTVTVSS VL: EIVLTQSPATLSLSPGERATLSCQASQSISNFLHWYQQRPGQAPRLLIRYRSQSISGIPARFSGSGSGTDFTLTISSLEPEDFAVYYCQQSGSWPHTFGGGTKVEIK",,,,0.5,0.00014,279000,> 10,> 50,,,
"LM609 grafted antibody combinatorial clone 6D1 (Fab, V domains shown, Fab) VH: QVQLVESGGGVVQPGRSLRLSCAASGFTFSSYDMSWVRQAPGKGLEWVAKVSSGGGSTYYPDTVQGRFTISRDNSKNTLYLQMNSLRAEDTAVYYCARHNYGSFYSWGQGTTVTVSS VL: EIVLTQSPATLSLSPGERATLSCQASQSISNHLHWYQQRPGQAPRLLIRYRSQSISGIPARFSGSGSGTDFTLTISSLEPEDFAVYYCQQSGSWPLTFGGGTKVEIK",,,,0.4,0.000158,410000,> 10,,,,
"LM609 grafted antibody variant D101 (Fab, V domains shown, Fab) VH: QVQLVESGGGVVQPGRSLRLSCAASGFTFSSYDMSWVRQAPGKGLEWVAKVSSGGGSTYYLDTVQGRFTISRDNSKNTLYLQMNSLRAEDTAVYYCARHNYGSFDYWGQGTTVTVSS VL: EIVLTQSPATLSLSPGERATLSCQASQSISNHLHWYQQRPGQAPRLLIRYRSQSISGIPARFSGSGSGTDFTLTISSLEPEDFAVYYCQQSGSWPHTFGGGTKVEIK",,,,,,,,,> 3,,
"LM609 grafted antibody combinatorial clone C29 (Fab, V domains shown, Fab) VH: QVQLVESGGGVVQPGRSLRLSCAASGFTFSSYDMSWVRQAPGKGLEWVAKVSSGGGSTYYPDTVQGRFTISRDNSKNTLYLQMNSLRAEDTAVYYCARHNHGSFYSWGQGTTVTVSS VL: EIVLTQSPATLSLSPGERATLSCQASQSISNHLHWYQQRPGQAPRLLIRYRSQSISGIPARFSGSGSGTDFTLTISSLEPEDFAVYYCQQSGSWPLTFGGGTKVEIK",,,,0.5,0.000343,675000,> 10,,,~55,2 to 4
"LM609 grafted antibody combinatorial clone 8F9 (Fab, V domains shown, Fab) VH: QVQLVESGGGVVQPGRSLRLSCAASGFTFSSYDMSWVRQAPGKGLEWVAKVSSGGGSTYYPDTVQGRFTISRDNSKNTLYLQMNSLRAEDTAVYYCARHNHGSFASWGQGTTVTVSS VL: EIVLTQSPATLSLSPGERATLSCQASQSISNHLHWYQQRPGQAPRLLIRYRSQSISGIPARFSGSGSGTDFTLTISSLEPEDFAVYYCQQSGSWPLTFGGGTKVEIK",,,,0.6,0.00028,475000,> 10,,,,
"LM609 grafted antibody variant E64 (Fab, V domains shown, Fab) VH: QVQLVESGGGVVQPGRSLRLSCAASGFTFSSYDMSWVRQAPGKGLEWVAKVSSGGGSTYYLDTVEGRFTISRDNSKNTLYLQMNSLRAEDTAVYYCARHNYGSFAYWGQGTTVTVSS VL: EIVLTQSPATLSLSPGERATLSCQASQSISNHLHWYQQRPGQAPRLLIRYRSQSISGIPARFSGSGSGTDFTLTISSLEPEDFAVYYCQQSGSWPHTFGGGTKVEIK",,,,,,,,,> 3,,
